{
  "source": "the DeepSol protein solubility set",
  "data": [
    {"assay": "soluble on expression in E. coli; label from the status in PepcDB or PDB records", "values": [
      {"sequence": "MPKERKERSVSLDKYKRSPLCCEASLALKPSEKQVKEWEEARCPVCMEHPHNGILLICSSYENGCRPYMCDTSHRHSNCFDQFRKASKEKPSLSLLREEEESNEPTEMEDVDSDSTAVNLLGEAASEITVVDLSDGERGEEEVEEEEEEVVVEEEEEGIVTTEEDQEKNKPQKLTCPLCRGHIKEWVVVKAARCFMNSKHRSCSCETCDFSGSYSDLRKHARLLHPGVRPSEADPERQRSWRRLERQSDLGDLLSTLQSSFGGDEISNDDGFLFADTRLLTVYFLIRVFRPESSGSRSSSWSGTSRARTHTSGRRRSSRPASLWGESYEGNTGTSPRDEENNQSSDEQVSGTRRRRSRRRTVIDDDDEEEEP", "soluble on expression in E. coli": "not soluble"},
      {"sequence": "MAHHHHHHMLPFSYRVLMRGVSAVSGALSVALQHRALAGTTRSFSSSRPVWLAPAAPTKQAPPAMGGDTDAEETHPDFQPRMVSSDLAQDEIAMIKKDIDDTIRDEDVVVFIKGVPEAPMCAFSKRMIDVMEALGVEYTSFDVLAHPVVRSYVKEVSEWPTIPQLFVKGEFAGGVDIILKMAESGDLQMLLDQKSIKHRDTKP", "soluble on expression in E. coli": "soluble"},
      {"sequence": "MTNNDTTLQLSSVLNRECTRSRVHCQSKKRALEIISELAAKQLSLPPQVVFEAILTREKMGSTGIGNGIAIPHGKLEEDTLRAVGVFVQLETPIAFDAIDNQPVDLLFALLVPADQTKTHLHTLSLVAKRLADKTICRRLRAAQSDEELYQIITDTEGTPDEA", "soluble on expression in E. coli": "soluble"},
      {"sequence": "MKYRITTWLAAALMLSSLHATAASLSDIQVSNGDQQARITLSFVGEPEYSFTPQGKRLVALDIKQTGVLQGLPLQFSGSNLVKSIRAGTPQDTQTLRLLVDLTEDGKTRAVKQQNGANYTVVFTINAEAPPPPVVVKRADPPPVMPSRTTTPGRNPFSSSGHERQTVMTSSQPAMTNNQTVTRPAARTVSADDKVIIAIDAGHGGQDPGAIGPNGTKEKNVTIAIARKLRALLNADPQFKPVLTRDGDYFISVMGRSEVARKQNANFLVSIHADAAPNRDATGASVWVLSNRRANSEMAGWLEQHEKQSELLGGAGDVLANSQADPYLSQAVLDLQFGHSQRVGYDVATNVLSQLQRIGNLHKRRPEHASLGVLRSPDIPSILVETGFISNNGEERLLGSDDYQEQIAEAIYNGLRNYFMQHPLQSAPRGEAAQTASAAAPGGMLIN", "soluble on expression in E. coli": "not soluble"},
      {"sequence": "SLDSNESKLKQKSPAEFFAENKNIAGFDNPGKSLYTTVRELVENALDSAESIEG", "soluble on expression in E. coli": "soluble"},
      {"sequence": "MRPDDKYHEKQAQVEATKLKQKVEALSPGDRQQIYEKGLELRSQQSKPQDASCLPALKVSDIEPTIPVTELDVVLTAGDIPVQYCAQPTNGMVYFRAFSSLNTLPEELRPYVPLFCSVLTKLGCGLLDYREQAQQIELKTGGMSASPHVLPDDSHMDTYEQGVLFSSLCLDRNLPDMMQLWSEIFNNPCFEEEEHFKVLVKMTAQELANGIPDSGHLYASIRAGRTLTPAGDLQETFSGMDQVRLMKRIAEMTDIKPILRKLPRIKKHLLNGDNMRCSVNATPQQMPQTEKAVEDFLRSIGRSKKERRPVRPHTVEKPVPSSSGGDAHVPHGSQVIRKLVMEPTFKPWQMKTHFLMPFPVNYVGECIRTVPYTDPDHASLKILARLMTAKFLHTEIREKGGAYGGGAKLSHNGIFTLYSYRDPNTIETLQSFGKAVDWAKSGKFTQQDIDEAKLSVFSTVDAPVAPSDKGMDHFLYGLSDEMKQAHREQLFAVSHDKLLAVSDRYLGTGKSTHGLAILGPENPKIAKDPSWIIR", "soluble on expression in E. coli": "not soluble"},
      {"sequence": "MGHHHHHHSHMVISWHLASDMDCVVTLTTDAARRIYDETQGRQQVLPLDSIYKKTLPDWKRSLPHFRNGKLYFKPIGDPVFARDLLTFPDNVEHCETVFGMLLGDTIILDNLDAANHYRKEVVKITHCPTLLTRDGDRIRSNGKFGGLQNKAPPMDKLRGMVFGAPVPKQCLILGEQIDLLQQYRSAVCKLDSVNKDLNSQLEYLRTPDMRKKKQELDEHEKNLKLIEEKLGMTPIRKCNDSLRHSPKVETTDCPVPPKRMRREATRQNRIITKTDV", "soluble on expression in E. coli": "not soluble"},
      {"sequence": "MKEVKVGIGDYAVGKGNGIISTYGLGSCVGITLYDRVTKVGGLLHALLPEAARYGHRGNPAKYVDTGLQLLLKEVIKLGASKFRLEAKLFGGAQMFDNIRSEELKIGEKNVQVAKRELRKLGIRLVAEDTGGKGGRTIYLDLSTGKVRMRKVTEGKVIEKVY", "soluble on expression in E. coli": "soluble"},
      {"sequence": "MFKRFRRLRLNENLRSMVRENSLSVNDLIYPLFVVNGTGIKKEISSMPDVFQMSLDEILKECQNVVNLGIKAIILFGVLENEKKDSCGSDALDDEGLVARSIREIKKNFPDLFIISDLCFCEYTDHGHCGIIDPKIKSVDNDATLEISAKQALVHARAGVDMIAPSGMMDGVITTLRKALDKEGFENLPIMAYSTKFASSYYGPFRDVAESAPSYGDRKSYQMDFANGKEALEESLEDEAQGADILMVKPALAYLDVVKEISLHSNLPLCIYNVSGEYAMLKAAKNAGVIDYEKVLYETIIAFKRAGAKLIITYHAKELAKMLKGEK", "soluble on expression in E. coli": "soluble"},
      {"sequence": "GLETSSKKYSLGKTLGTGSFGIVCEVFDIESGKRFALKKVLQDPRYKNRELDIMKVLDHVNIIKLVDYFYTTGDEEPKPPQPPDDHNKLGGKNNGVNNHHKSVIVNPSQNKYLNVIMEYVPDTLHKVLKSFIRSGRSIPMNLISIYIYQLFRAVGFIHSLGICHRDIKPQNLLVNSKDNTLKLCDFGSAKKLIPSEPSVAYICSRFYRAPELMLGATEYTPSIDLWSIGCVFGELILGKPLFSGETSIDQLVRIIQIMGTPTKEQMIRMNPHYTEVRFPTLKAKDWRKILPEGTPSLAIDLLEQILRYEPDLRINPYEAMAHPFFDHLRNSYESEVKNNSNFPHGVNQNIPQLFNFSPYELSIIPGNVLNRILPKNFSPNYKH", "soluble on expression in E. coli": "soluble"},
      {"sequence": "MGVRLAVRCFVVDGVLIDTGAKSMENEFTSFFQQQDIDQVVITHFHEDHTGCAAFLQRSMGLPIYMNEPMIEYCRQKADYPLYRKIFWGKRDPFAAKPIGATFSSRNATWDVIPTPGHAIDHVVFLNRETGQLFSGDLYCQEKTKVILREEDIPTIIASLQHVLTYDFGDVFCAHAGYLPLEHHHHHH", "soluble on expression in E. coli": "not soluble"},
      {"sequence": "MGSDKIHHHHHHVKIAIASDHAAFELKEKVKNYLLGKGIEVEDHGTYSEESVDYPDYAKKVVQSILSNEADFGILLCGTGLGMSIAANRYRGIRAALCLFPDMARLARSHNNANILVLPGRLIGAELAFWIVDTFLSTPFDGGRHERRIRKIDEV", "soluble on expression in E. coli": "soluble"},
      {"sequence": "MAKIVILFDFDRTLIDGDSDNWVVTEMGLTEIFHQLRFTLPWNRLMDRMMMELQSQGRSIDDIKSCLKKMPIDSHIIEAIKSAKSSGCDLKIVSDANQFFIEKILEHHDLVDCFSEIYTNPTSLDDNGNLRILPYHSDALPPHSCNLCPSNLCKGLVMDHLRASSSNDQIPRRFIYLGDGGGDFCPTLKLRECDFVMPRTNYPLWKKISDNPLLIKAEVKEWSSAEEQQRILLQLVSTITKEEDS", "soluble on expression in E. coli": "soluble"},
      {"sequence": "MGSDKIHHHHHHMNNMEIWVVDDDRDYCELIVEMLQDEFKVSPFYGAADFRVALQTQKPDLLLMDINLPDTDGITLCRELQASNQEVAVLFVSGMNTLEERLKAYEVNAVDFIAKPFELKELLAKVHSVAHYVMKQRELIQAESVSRNMAFQSMTESSQYGCVLQFFRQCFLCNDHQTLADAFFDLMQQLNLNTCLEIRGENVEYFAPRHAAISPIESNILELLDKHGRLYDFGCRTICNDKHVSFLIKNMPINDEVLYGRLRDIIAVVVEGLEARVLDISRQQTLTQVFLDIESLIGDINVATLEHDEKFSAALINMTTEIRGSFHVLDMTIEQEDYFTALIERNLKEVKSASEAFTRLQSALGKVMDVLGGSVS", "soluble on expression in E. coli": "not soluble"},
      {"sequence": "MEQPQEEAPEVREEEEKEEVAEAEGAPELNGGPQHALPSSSYTDLSRSSSPPSLLDQLQMGCDGASCGSLNMECRVCGDKASGFHYGVHACEGCKGFFRRTIRMKLEYEKCERSCKIQKKNRNKCQYCRFQKCLALGMSHNAIRFGRMPEAEKRKLVAGLTANEGSQYNPQVADLKAFSKHIYNAYLKNFNMTKKKARSILTGKASHTAPFVIHDIETLWQAEKGLVWKQLVNGLPPYKEISVHVFYRCQCTTVETVRELTEFAKSIPSFSSLFLNDQVTLLKYGVHEAIFAMLASIVNKDGLLVANGSGFVTREFLRSLRKPFSDIIEPKFEFAVKFNALELDDSDLALFIAAIILCGGE", "soluble on expression in E. coli": "soluble"},
      {"sequence": "MSLTNTTKIVFLGASSASFGLSMFRDLFASPVLAGSTLTLVGRNPETLGRMTELAKLMNARSGAGLIIEQTTDRRAALDGAGFVINATAIDRNRLWKQDFEVPKKHGIRHTLGENGGPGGLFFTLRTLPLVFDFIRDIEELCPTALFLNYSNPESRIILALGRYTKVRHIGLCHGIFMGRDAVAYIMQMPREEIEVWGAGLNHFQCLTEIRHRDTGEDLYPRFRAAEQSFDPDAWRFTRRLYRAFGYWLTCSDDHLGEYLPYGWEAGEKGYDFDQDERWRGEFLTQLNGVLGGTMPIPQWWTEPSGERGAAVIAAMLHNQKRFIESGIVINRGVIPNLPAELAVEVPVTVDAAGVHPVSLGPLPDPIAKLMLMQASVQQLAVEAAVHASKELALQALLIDPVVNSAVAAEKILDELWEINRPYIRKEGHHHHHH", "soluble on expression in E. coli": "not soluble"},
      {"sequence": "SLESYTVNRGKGVTRYDICQLPSNSPIEDDRAEEIVQVPILQDNNIKTSTDWMFFGVFDGHGGWTTSSKLRDQLIGYVINELGTIYKPVQGEENLRYVPNSATIDQAMKNGFLKLDHELVNKNIEKLLTDGNKAKAAELLMPALSGSCALLSFYDTNSQMLKVAVTGDSRAILGSFKDNHWTVRQLSIDQTGANPSEVARIISEHPNEPKVIRNGRVLGSLEPTRAFGDCRYKLPAVIQERIYKQFFGRPLPNQLKSPPYVTAEPIITTTKINPNEHDFLVMASDGLYEMLTNEEIVGLVVKWMEKADMIKPRKSWFGFGSADSKLPEVKDVTNDKALKKPLNNKLGNSFLLEDNNVSTHLIRNALSNGGSREQTSMLISIPNPVSRRYRDDLTVTVVFFGKDTKGEDENGTLEVNWNATAG", "soluble on expression in E. coli": "soluble"},
      {"sequence": "GPGSMTKLFHHNITAIHEKFQPPFSVDTFRRIARLVLARVEHMPPPDYYDGSAVWRRVRHYMRQWIKKPDPSEVCMVPLLDLVNHSNRPNCGLRVGPSSVVGGKGAITLYSIARINPGQEICRHYNFAINRPNALFRYGFLPFDLISIVEHDAIDEYLVKNQHMLREESEEVRMKQQKEREEIQKLEKIFQHARSGR", "soluble on expression in E. coli": "not soluble"},
      {"sequence": "EKKRIESLINNMYDPVIGLDENLKILFVNEQAIKIIGISQEELIGHYTQELAIKNDLVRTLVQDLMVAENTPSNKAIPIKIYSNNKEGYFEKEILHISVTPTGEQVKQLIGHVIILRNIT", "soluble on expression in E. coli": "not soluble"},
      {"sequence": "TEQATTTDELAFTRPYGEQEKQILTAEAVEFLTELVTHFTPQRNKLLAARIQQQQDIDNGTLPDFISETASIRDADWKIRGIPADLEDRRVEITGPVERKMVINALNANVKVFMADFEDSLAPDWNKVIDGQINLRDAVNGTISYTNEAGKIYQLKPNPAVLICRVRGLHLPEKHVTWRGEAIPGSLFDFALYFFHNYQALLAKGSGPYFYLPKTQSWQEAAWWSEVFSYAEDRFNLPRGTIKATLLIETLPAVFQMDEILHALRDHIVGLNCGRWDYIFSYIKTLKNYPDRVLPDRQAVTMDKPFLNAYSRLLIKTCHKRGAFAMGGMAAFIPSKDEEHNNQVLNKVKADKSLEANNGHDGTWIAHPGLADTAMAVFNDILGSRKNQLEVMREQDAPITADQLLAPCDGERTEEGMRANIRVAVQYIEAWISGNGCVPIYGLMEDAATAEISRTSIWQWIHHQKTLSNGKPVTKALFRQMLGEEMKVIASELGEERFSQGRFDDAARLMEQITTSDELIDFLTLPGYRLLA", "soluble on expression in E. coli": "soluble"},
      {"sequence": "MMPTEYPATAEESVDVITDALLTASRLLVAISAHSIAQVDENITIPQFRTLVILSNHGPINLATLATLLGVQPSATGRMVDRLVGAELIDRLPHPTSRRELLAALTKRGRDVVRQVTEHRRTEIARIVEQMAPAERHGLVRALTAFTEAGGEPDARYEIE", "soluble on expression in E. coli": "soluble"}
    ]}
  ]
}
